Results on 24 molecules are retold here after patent US20250188151A1, “C-JUN ANTAGONIST PEPTIDES” (The University of Bath, priority 2022, published 2025).

Bridge positions count the residues as written; N and C are the ends. Peptide text beside a SMILES is read from it.

B1: HingeW variant peptide 28 (peptide)
peptide: Ac-EAEELVVEEDVLEEEIEQLEERNYALRKEIEDLQ-NH2
notes: Synthetic, NΔ20 CΔ9; also called linear form of 28/29
B2: HingeW variant peptide 12 (peptide)
peptide: Ac-KEAEDLVVEEDVLEEEIEQLEERNYALRKEIKDLQDQ-NH2
notes: Synthetic, NΔ19 CΔ7; also called linear form of 12/13
B3: HingeW peptide variant 22 (peptide)
peptide: Ac-EAEELVVEEDVLEEEIEQLEERNYALRKEIKDLQDQ-NH2
notes: Synthetic, NΔ20 CΔ7; also called linear form of 22/23
B4: HingeW variant peptide 14 (peptide)
peptide: Ac-EAKELVDEEDVLEEEIEQLEERNYALRKEIEDLQKQ-NH2
notes: Synthetic, NΔ20 CΔ7; also called linear form of 14/15
B5: HingeW variant peptide 18 (peptide)
peptide: Ac-EAEELVVEEDVLEEEIKQLEDRNYALRKEIEDLQKQ-NH2
notes: Synthetic, NΔ20 CΔ7; also called linear form of 18/19
B6: HingeW variant peptide 16 (peptide)
peptide: Ac-EAEELVVEEKVLEDEIEQLEERNYALRKEIEDLQKQ-NH2
notes: Synthetic, NΔ20 CΔ7; also called linear form of 16/17
B7: HingeW variant peptide 19 (peptide)
peptide: Ac-EAEELVVEEDVLEEEIKQLEDRNYALRKEIEDLQKQ-NH2
modifications: lactam 17-21
SMILES: CC[C@H](C)[C@H](NC(=O)[C@H](CCC(=O)O)NC(=O)[C@H](CCCCN)NC(=O)[C@H](CCCNC(=N)N)NC(=O)[C@H](CC(C)C)NC(=O)[C@H](C)NC(=O)[C@H](Cc1ccc(O)cc1)NC(=O)[C@H](CC(N)=O)NC(=O)[C@H](CCCNC(=N)N)NC(=O)[C@@H]1CC(=O)NCCCC[C@H](NC(=O)[C@@H](NC(=O)[C@H](CCC(=O)O)NC(=O)[C@H](CCC(=O)O)NC(=O)[C@H](CCC(=O)O)NC(=O)[C@H](CC(C)C)NC(=O)[C@@H](NC(=O)[C@H](CC(=O)O)NC(=O)[C@H](CCC(=O)O)NC(=O)[C@H](CCC(=O)O)NC(=O)[C@@H](NC(=O)[C@@H](NC(=O)[C@H](CC(C)C)NC(=O)[C@H](CCC(=O)O)NC(=O)[C@H](CCC(=O)O)NC(=O)[C@H](C)NC(=O)[C@H](CCC(=O)O)NC(C)=O)C(C)C)C(C)C)C(C)C)[C@@H](C)CC)C(=O)N[C@@H](CCC(N)=O)C(=O)N[C@@H](CC(C)C)C(=O)N[C@@H](CCC(=O)O)C(=O)N1)C(=O)N[C@@H](CCC(=O)O)C(=O)N[C@@H](CC(=O)O)C(=O)N[C@@H](CC(C)C)C(=O)N[C@@H](CCC(N)=O)C(=O)N[C@@H](CCCCN)C(=O)N[C@@H](CCC(N)=O)C(N)=O
notes: Synthetic, NΔ20 CΔ7; also called cyclised form of 18/19
B8: HingeW variant peptide 20 (peptide)
peptide: Ac-EAEELVVEEDVLEEEIEQLEEKNKALKDEIEDLQKQY-NH2
notes: Synthetic, NΔ20 CΔ7; also called linear form of 20/21
B9: HingeW variant peptide 9 (peptide)
peptide: Ac-LVVEEDVLEEEIEQLEERNYALRKEIEDLQKQLEDL-NH2
notes: Synthetic, NΔ24 CΔ3; also called linear form of 9/10
B10: HingeW variant peptide 21 (peptide)
peptide: Ac-EAEELVVEEDVLEEEIEQLEEKNKALKDEIEDLQKQY-NH2
modifications: lactam 24-28 (inferred)
notes: Synthetic, NΔ20 CΔ7; also called cyclised form of 20/21

The target of the first data set is cJun bZIP (Homo sapiens, UniProt P05412, S292Y). The data set is described as follows: CD spectra and thermal denaturation of peptide/cJun heterodimers. The following applies: peptide (5 μM)/c-Jun (5 μM) heterodimer; Table 6.
Procedure: Circular Dichroism (CD): An Applied Photophysics Chirascan was used for CD measurements, with a 200 μL sample in a 1 mm path length CD cell. Protein/DNA samples were suspended in 150 mM potassium phosphate, 150 mM potassium fluoride and 5 mM TCEP at pH 7.4 and were equilibrated for 30 minutes before measurement. […] These scans were averaged and converted to molar residue ellipticities (MRE). Thermal denaturation experiments were performed by measuring the ellipticity at 222 nm over a 1 to 90° C. gradient at 1° C. increments. Post-melt scans at 20° C. confirmed the transitions were reversible as they overlaid within 10% of the pre-melt scan.
Circular Dichroism (CD): An Applied Photophysics Chirascan was used for CD measurements, with a 200 μL sample in a 1 mm path length CD cell. Protein/DNA samples were suspended in 150 mM potassium phosphate, 150 mM potassium fluoride and 5 mM TCEP at pH 7.4 and were equilibrated for 30minutes before measurement. […] Thermal denaturation experiments were performed by measuring the ellipticity at 222 nm over a 1 to 90° C. gradient at 1° C. increments. Post-melt scans at 20° C. confirmed the transitions were reversible as they overlaid within 10% of the pre-melt scan.
Peptide helicity was determined by quantifying the CD signal at 222 nm of peptide only samples. Thermal denaturation experiments were then used to determine the Tm of peptide-c-Jun heterodimers, which was used as an approximate measure of target engagement. […] The same 60 amino acid c-Jun bZIP construct was used for all experiments, regardless of antagonist peptide length.
For “Ac-EAEELVVEEKVLEDEIEQLEERNYALRKEIEDLQKQ-NH2 [Peptide 16]”, the “Tm (° C.)” value worked out at 54.9 ± 1.2 °C. For the molecule “Ac-EAKELVDEEDVLEEEIEQLEERNYALRKEIEDLQKQ-NH2 [Peptide 14]”, the “Tm (° C.)” value came to 57.5 ± 1.1 °C. The same measure, in the same setting: the same measure for “Ac-EAEELVVEEDVLEEEIKQLEDRNYALRKEIEDLQKQ-NH2 [Peptide 18]”: 55.5 ± 1.7 °C; for “Ac-EAEELVVEEDVLEEEIEQLEEKNKALKDEIEDLQKQY-NH2 [Peptide 20]”: 56.2 ± 1.3 °C.

As for “Ac-EAEELVVEEDVLEEEIEQLEERNYALRKEIKDLQDQ-NH2 [Peptide 22]”, the “Tm (° C.)” value came out at 55.6 ± 1.2 °C. Regarding “Ac-EDVLEEEIEQLEERNYALRKEIEDLQKQLEKLY-NH2 [Peptide 7]”, the “Tm (° C.)” value was 64.3 ± 1.3 °C. On the same count and under the same terms, the same measure for “Ac-EAEELVVEEDVLEEEIEQLEERNYALRKEIEDLQ-NH2 [Peptide 28]”: 53.8 ± 5.3 °C; for `CC[C@H](C)[C@H](NC(=O)[C@H](CCC(=O)O)NC(=O)[C@H](CCCCN)NC(=O)[C@H](CCCNC(=N)N)NC(=O)[C@H](CC(C)C)NC(=O)[C@H](C)NC(=O)[C@H](Cc1ccc(O)cc1)NC(=O)[C@H](CC(N)=O)NC(=O)[C@H](CCCNC(=N)N)NC(=O)[C@@H]1CC(=O)NCCCC[C@H](NC(=O)[C@@H](NC(=O)[C@H](CCC(=O)O)NC(=O)[C@H](CCC(=O)O)NC(=O)[C@H](CCC(=O)O)NC(=O)[C@H](CC(C)C)NC(=O)[C@@H](NC(=O)[C@H](CC(=O)O)NC(=O)[C@H](CCC(=O)O)NC(=O)[C@H](CCC(=O)O)NC(=O)[C@@H](NC(=O)[C@@H](NC(=O)[C@H](CC(C)C)NC(=O)[C@H](CCC(=O)O)NC(=O)[C@H](CCC(=O)O)NC(=O)[C@H](C)NC(=O)[C@H](CCC(=O)O)NC(C)=O)C(C)C)C(C)C)C(C)C)[C@@H](C)CC)C(=O)N[C@@H](CCC(N)=O)C(=O)N[C@@H](CC(C)C)C(=O)N[C@@H](CCC(=O)O)C(=O)N1)C(=O)N[C@@H](CCC(=O)O)C(=O)N[C@@H](CC(=O)O)C(=O)N[C@@H](CC(C)C)C(=O)N[C@@H](CCC(N)=O)C(=O)N[C@@H](CCCCN)C(=O)N[C@@H](CCC(N)=O)C(N)=O` [Peptide 19] (Ac-EAEELVVEEDVLEEEIKQLEDRNYALRKEIEDLQKQ-NH2; lactam 17-21 (inferred)): 60.9 ± 3.6 °C; for “Ac-KEAEDLVVEEDVLEEEIEQLEERNYALRKEIKDLQDQ-NH2 [Peptide 12]”: 56.5 ± 1.6 °C. In the case of “Ac-LVVEEDVLEEEIEQLEERNYALRKEIEDLQKQLEDL-NH2 [Peptide 9]”, the “Tm (° C.)” value turned out to be 62.1 ± 1.4 °C. As for `CC[C@H](C)[C@H](NC(=O)[C@H](CCC(=O)O)NC(=O)[C@@H]1CC(=O)NCCCC[C@H](NC(=O)[C@H](CC(N)=O)NC(=O)[C@H](CCCCN)NC(=O)[C@H](CCC(=O)O)NC(=O)[C@H](CCC(=O)O)NC(=O)[C@H](CC(C)C)NC(=O)[C@H](CCC(N)=O)NC(=O)[C@H](CCC(=O)O)NC(=O)[C@@H](NC(=O)[C@H](CCC(=O)O)NC(=O)[C@H](CCC(=O)O)NC(=O)[C@H](CCC(=O)O)NC(=O)[C@H](CC(C)C)NC(=O)[C@@H](NC(=O)[C@H](CC(=O)O)NC(=O)[C@H](CCC(=O)O)NC(=O)[C@H](CCC(=O)O)NC(=O)[C@@H](NC(=O)[C@@H](NC(=O)[C@H](CC(C)C)NC(=O)[C@H](CCC(=O)O)NC(=O)[C@H](CCC(=O)O)NC(=O)[C@H](C)NC(=O)[C@H](CCC(=O)O)NC(C)=O)C(C)C)C(C)C)C(C)C)[C@@H](C)CC)C(=O)N[C@@H](C)C(=O)N[C@@H](CC(C)C)C(=O)N[C@@H](CCCCN)C(=O)N1)C(=O)N[C@@H](CCC(=O)O)C(=O)N[C@@H](CC(=O)O)C(=O)N[C@@H](CC(C)C)C(=O)N[C@@H](CCC(N)=O)C(=O)N[C@@H](CCCCN)C(=O)N[C@@H](CCC(N)=O)C(=O)N[C@@H](Cc1ccc(O)cc1)C(N)=O` [Peptide 21] (Ac-EAEELVVEEDVLEEEIEQLEEKNKALKDEIEDLQKQY-NH2; lactam 24-28), the “Tm (° C.)” value came out at 58.9 ± 1.0 °C.

Another data set addresses T1, cJun bZIP (human, UniProt P05412 252-308, limits assumed).
T1 construct: Purified from a His-SUMO fusion with the tag cleaved off; also called c-Jun bZIP domain; 60 amino acid c-Jun bZIP construct
T1 chain: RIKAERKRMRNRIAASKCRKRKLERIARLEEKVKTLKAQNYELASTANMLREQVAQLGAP
The data set is described as follows: ITC (PEAQ-ITC), peptide injected into cJun, one site model.
Conditions: not given
As usually defined, the Kd is the constant that tells how readily two partners part at equilibrium. A high value points to weaker binding. For Ac-EAEELVVEEDVLEEEIEQLEERNYALRKEIEDLQKQLEKL-NH2 (Synthetic, NΔ20 CΔ3) [HingeW variant peptide 4], the “-TΔS” value was 35.7 kcal/mol; the equilibrium dissociation constant (Kd) came to 0.0911 µM; the “Stoichiometry, n” value came to 0.91; the ΔG is -9.68 kcal/mol. This molecule also registered a ΔH of -45.4 kcal/mol.

The next data set addresses T1, cJun bZIP. The data set is described as follows: cell-based or functional assay.
Conditions: not given
For B1, the “IC50 CD” value was 725 µM. Same read-out and setting: the same measure for Ac-EAEELVVEEDVLEEEIEQLEERNYALRKEIEDLQKQLEKL-NH2 (Synthetic, NΔ20 CΔ3) [HingeW variant peptide 4]: 45.4 µM; for Ac-EAEELVVEEDVLEEEIEQLEEKNKALKDEIEDLY-NH2 [HingeW variant peptide 26]: 1560 µM. Turning to B2, the “IC50 CD” value was found to be 115 µM.

Consider B3, for which the “IC50 CD” value was found to be 101 µM. In the case of B4, the “IC50 CD” value came to 100 µM. As for B5, the “IC50 CD” value was 98.9 µM. Regarding B6, the “IC50 CD” value amounted to 114 µM. As for B7, the “IC50 CD” value turned out to be 94.4 µM.

In the case of B8, the “IC50 CD” value was 121 µM. For the molecule B9, the “IC50 CD” value is 94.6 µM. Take Ac-LVVEEDVLEEEIEQLEEKNKALKDEIEDLQKQLEKLY-NH2 (also: table prints a different, shorter sequence for 7/8, also called linear form of 7/8) [HingeW variant peptide 7]: the “IC50 CD” value was determined as 83.9 µM.

Regarding B10, the “IC50 CD” value came to 94.1 µM.

The next data set has as its target T1, cJun bZIP. The data set is described as follows: CD thermal denaturation, peptide 5 µM and c-Jun 5 µM.
Conditions: not given
With B1, the “Tm (° C.) of peptide-c-Jun heterodimer” value is 53.8 ° C. As for Ac-EAEELVVEEDVLEEEIEQLEERNYALRKEIEDLQKQLEKL-NH2 (Synthetic, NΔ20 CΔ3) [HingeW variant peptide 4], the “Tm (° C.) of peptide-c-Jun heterodimer” value was 64.1 ° C. Take B2: the “Tm (° C.) of peptide-c-Jun heterodimer” value came to 56.5 ° C.

As to B3, the “Tm (° C.) of peptide-c-Jun heterodimer” value turned out to be 55.6 ° C. As to B4, the “Tm (° C.) of peptide-c-Jun heterodimer” value turned out to be 57.5 ° C. For B5, the “Tm (° C.) of peptide-c-Jun heterodimer” value came out at 55.5 ° C. Still for that read-out and setting: the same measure for B6: 54.9 ° C; for B7: 60.9 ° C; for B8: 56.2 ° C.

As for B9, the “Tm (° C.) of peptide-c-Jun heterodimer” value came out at 62.1 ° C. Still for that read-out and setting: the same measure for Ac-LVVEEDVLEEEIEQLEEKNKALKDEIEDLQKQLEKLY-NH2 (also: table prints a different, shorter sequence for 7/8, also called linear form of 7/8) [HingeW variant peptide 7]: 64.3 ° C; for B10: 58.9 ° C.
